# Results published in the RNAGym collection of RNA variant scans (doi:10.7554/elife.80360).
# B1: HDV Ribozyme (parent)
# chain: GGCCGGCAUGGUCCCAGCCUCCUCGCUGGCGCCGGCUGGGCAACAUUCCGAGGGGACCGUCCCCUCGGUAAUGGCGAAUGGGACCCA
# Variants of: B1
# Test: self-cleavage, relative activity (ratio to wild type); higher = more cleavage; co-transcriptional
row,Variant,self-cleavage
1,GGCCGGCAUGGUCCCCGCCUCCUCGCUGGCGCCGGCUGGACAACAUUCCGAGGGGACCGUCCCCUCGGUAAUGGCGAAUGGGACCCA [A16C G40A],0.65
2,GGCCGGCAUGGUCCCAGCCUCCUCACUGGCGCCGGCUGGGCAACAUUCCGAGGGGAGCGUCCCCUCGGUAAUGGCGAAUGGGACCCA [G25A C57G],0.224
3,GGCCGGCAUGGUCCCAGCCUCCUCGCUGGCGCCGGCUGGGCAACAUUCCGAGGGGACCGUCCCCUCGGUAAUGGCGAAUGGGCCCGA [A83C C86G],0.254
4,GGCCGGCAUGGUCCCAGCCUCCUCGCUGGCGCCGGCCGGGCAACAUUCCGAGGGGACCGUCCCCUCGGUAAGGGCGAAUGGGACCCA [U37C U72G],0.429
5,GGCCGGCAUGGUCCCAGCGUCCUCGCUGGCGCCGGCUGGGCAACAUUCCGAGGGGACCGUCCCCUCGGUAGUGGCGAAUGGGACCCA [C19G A71G],0.158
6,GGCCGGCAUGGUCCCAGCCUCCUCGCUGGCGGCGGCUGGGCAAAAUUCCGAGGGGACCGUCCCCUCGGUAAUGGCGAAUGGGACCCA [C32G C44A],0.0791
7,GGCCGGCAUGGUCCCAGCCUCCUCGCUGGCGCCGGCUGGGCAACAUUCCGAGGGGACCGUCCCCUCGGUAAUGGCGAAGGUGACCCA [U79G G81U],0.225
8,GGCCGGCAUGGUCCGAGCCUCCUCGCUGGCGCCGGCUGGGCAACAUUCCGAGGGGACCGUCCCCUCGGUAAUGGCGAAUGGGACACA [C15G C85A],0.748
9,GGCCGGCAUGGUCUCAGCCUCCUCGCUGGCGCCGGCUGGGUAACAUUCCGAGGGGACCGUCCCCUCGGUAAUGGCGAAUGGGACCCA [C14U C41U],1.11
10,GGCCGGCAUGGACCCAGCCUGCUCGCUGGCGCCGGCUGGGCAACAUUCCGAGGGGACCGUCCCCUCGGUAAUGGCGAAUGGGACCCA [U12A C21G],0.237
11,GGCCGGCAUGGUCCCAGCCUCCUCGCUGGCGCCGGCUGGGCAACAUUCCGAGGGGACCGUCUGCUCGGUAAUGGCGAAUGGGACCCA [C62U C63G],0.654
12,GGCCGGCAUGGUCCCAGCCUCCUCCCUGGCGCCGGCUGGGCAACAUUCCGAGGGGACCGUCCCCUCGGUAAUGGCCAAUGGGACCCA [G25C G76C],0.0723
13,GGCCGGCGUGGUCCCAGCCUCCUCGCUGGCGCCGGGUGGGCAACAUUCCGAGGGGACCGUCCCCUCGGUAAUGGCGAAUGGGACCCA [A8G C36G],0.104
14,GGCCGGCAUGGUCCCAGCCUCCUCGCUGGCGCAGGCUGGGCAACAUUCCGAGGGGACCGUCCCCUCGGUAGUGGCGAAUGGGACCCA [C33A A71G],0.289
15,GGCCGGCAAGGUCCCAGCCUCCUCGCUGGCGUCGGCUGGGCAACAUUCCGAGGGGACCGUCCCCUCGGUAAUGGCGAAUGGGACCCA [U9A C32U],0.911
16,GGCCGGCAUAGUCCCAGCCACCUCGCUGGCGCCGGCUGGGCAACAUUCCGAGGGGACCGUCCCCUCGGUAAUGGCGAAUGGGACCCA [G10A U20A],0.0831
17,GGCCGGCAUGGUCCCAGCAUCCUCGCUGGCGCAGGCUGGGCAACAUUCCGAGGGGACCGUCCCCUCGGUAAUGGCGAAUGGGACCCA [C19A C33A],0.0852
18,GGCCGGCAUGGUCCCAGCCUCCUCGCUGGCGCCGGCUGAGCAACAUUCCGAGGGGACCGUCCCCUCGGUAAUGGCGAUUGGGACCCA [G39A A78U],0.201
19,GGCCGGCAUGGUCCCAGCCUCCUCGCUGGCGCCGGCUGGGCCACAUUCCGAGGGGACCGUCCCUUCGGUAAUGGCGAAUGGGACCCA [A42C C64U],0.208
20,GGCCGGCAUGGUCCCAGCCUCCUCGCUGGCGACGGCAGGGCAACAUUCCGAGGGGACCGUCCCCUCGGUAAUGGCGAAUGGGACCCA [C32A U37A],0.0627
21,GGCCGGCAUGGUCCCAACCUCCUCGAUGGCGCCGGCUGGGCAACAUUCCGAGGGGACCGUCCCCUCGGUAAUGGCGAAUGGGACCCA [G17A C26A],0.798
22,GGCCGGCAUGGUCCCAGCCUCCUCGCUGGCGCCGGGUGGGCAACAUUCCGAGGGGACCGUCCCCUCGGUAAUGGCGAAUGGGAACCA [C36G C84A],0.0773

row,Variant,self-cleavage
1,GGCCGGCAUGGUCCCAGCCUCCUCGCUGUCGCCGGCUGGGCAACAUUCCGACGGGACCGUCCCCUCGGUAAUGGCGAAUGGGACCCA [G29U G52C],0.0268
2,GGCCGGCAUGGUCCCAGCCUCCUCGUUCGCGCCGGCUGGGCAACAUUCCGAGGGGACCGUCCCCUCGGUAAUGGCGAAUGGGACCCA [C26U G28C],0.19
3,GGCCGGCAUGGUCCCAGCCUCCUCGCUGGUGCCGGCUGGGCAACAUUCCGAGGGGACCGUCCCCUCGGUAAUGGCGAGUGGGACCCA [C30U A78G],0.208
4,GGCCGACAUGGUCCCAGCCUCCUCGCUGGCGCCGGCUGGGCAACAUUCCGGGGGGACCGUCCCCUCGGUAAUGGCGAAUGGGACCCA [G6A A51G],0.517
5,GGCCGGUAUGGUCCCAGCCUCCUCGCUGGCGCCGGCUGGGCAACAUUCCGAGGGGACCGUCCCCUCGGUAUUGGCGAAUGGGACCCA [C7U A71U],0.677
6,CGCCGGCAUGGUACCAGCCUCCUCGCUGGCGCCGGCUGGGCAACAUUCCGAGGGGACCGUCCCCUCGGUAAUGGCGAAUGGGACCCA [G1C C13A],0.0386
7,GGCCGGUAUGGUCCCAGUCUCCUCGCUGGCGCCGGCUGGGCAACAUUCCGAGGGGACCGUCCCCUCGGUAAUGGCGAAUGGGACCCA [C7U C18U],0.277
8,GGCCGGCAUGGUCCCAGCGUCCUCGCUGGCGCCGGCUGGGCAACAUUCCGAGGGGACCGUCCCCUCGGUAAUGGCGAAUGGGACCCG [C19G A87G],0.16
9,GGCCGGCAUGGUCCCAGCCUCCUCGCUGGCGCCGGCUGGGCAACAUUCCGAGGGGACCGUCCCCUCGGUAAUGGCGAAUGGGAUCGA [C84U C86G],0.907
10,GGCCGGCAUGGUCCCAGCCUCCUCGCUGGCGCCGGCUGGGCAACAUUCCCAGGGGACCGUCCCCUCGGUAAUUGCGAAUGGGACCCA [G50C G73U],0.246
11,GGCCGGCAUGGUCCCAGCCUCCUCGCUGGCGCCGGCUGGGCAACAUUCCGAGGGGACCGUCGCCUCGGUAAUGACGAAUGGGACCCA [C62G G74A],0.402
12,GGCCGGCAUGGUCCCAGCCUCCUCGCUGGCGCCGGCUGGGCUACAUUCCGAGGGGAGCGUCCCCUCGGUAAUGGCGAAUGGGACCCA [A42U C57G],0.489
13,GGCCGGCAUGGUCCCAGCCUCCUCGCUGGCGGCGGCUGGGCAACAUUCCGAGGGGACCGUCCCCUCGGUAAUGGCGCAUGGGACCCA [C32G A77C],0.0536
14,GGCCGGCAUGGUCCCAGCCUCCUCGCUGGCGCCGGCUGGGCAACAUUCCGAGGGGACCGACCCCUCGGUAAUGGCGAAUGGGACCGA [U60A C86G],0.851
15,GGCCGGCAGGGUCCAAGCCUCCUCGCUGGCGCCGGCUGGGCAACAUUCCGAGGGGACCGUCCCCUCGGUAAUGGCGAAUGGGACCCA [U9G C15A],1.21
16,GGCCGGCAUCGUCCCAGCCUCCUCGCUGGCGCCGGCUGGGCAACAUUCCGAGGGGACCGUCCCCUCGGUAAUGUCGAAUGGGACCCA [G10C G74U],0.166
17,GGCCGGCAUGGUCGCAGCCUCCUCGCUGGCGCCGGCUGGGCAACAUUCCGAGGGGACCGUCCCCUCGGUAAUGGCGAAUGGGACCCA [C14G],0.724
18,GGCCGGCAUGGUCCCAGCCUCCUCGCUCGCGCCGGCUGGGCAACAUUCCGAGGGGACCGUUCCCUCGGUAAUGGCGAAUGGGACCCA [G28C C61U],0.185
19,GGCCGGCAUGGUCCCAGCCUCCUCGCAGGCGCCGGCUGGGCAACAUUCCGAGGGGACCGUCCCCUCGGUAAUGGCGAAUGUGACCCA [U27A G81U],0.502
20,GGCCGGCAUGGUCCCAGCCUCCUCGGUGGCGACGGCUGGGCAACAUUCCGAGGGGACCGUCCCCUCGGUAAUGGCGAAUGGGACCCA [C26G C32A],0.326
21,GGCCGGCAUGGUCCCAGCCUCAUCGCUGGCGCCGGCUGGGCAACAUUCCGAGGGGACCGUCCCCUAGGUAAUGGCGAAUGGGACCCA [C22A C66A],0.258
22,GGCCGGCAUGGUCCCAGCCUCCUCGCUGGCGCCGGCUGGGCAACAUUCCGAGGGGACCGUCCCCUCGAUAAUGGCGGAUGGGACCCA [G68A A77G],0.743

row,Variant,self-cleavage
1,GGCCGGCAUGGUCCGAGCCUCCUCGCUGGCGCCGGCUGGGCAACAUUCCGAGGGGACCGUCCCCUCGGUACUGGCGAAUGGGACCCA [C15G A71C],0.222
2,GGCCGGCAUGGUCCCAGCCGCCUCGCUGGCGCCGGCUGGGCAACGUUCCGAGGGGACCGUCCCCUCGGUAAUGGCGAAUGGGACCCA [U20G A45G],0.0755
3,GGCCGGCAUGGUCCCAGCCUCCUCGCUGGCGCCGGCUGGGUAACAUACCGAGGGGACCGUCCCCUCGGUAAUGGCGAAUGGGACCCA [C41U U47A],0.96
4,GGCCGGCAUGGUCCCAGCCUCCUCGCUGGCGCCGGCUGGGCAACAUUCCGAGGGGACCGUCCCCUCGCUAAUAGCGAAUGGGACCCA [G68C G73A],0.193
5,GGCCGGCAUGGUCCCAGCCUCCUCGCUGGCGCCGGCUGGGCAACAUUCCGAGGGGAUCGUCGCCUCGGUAAUGGCGAAUGGGACCCA [C57U C62G],1.25
6,GGCCGGCAUGGUCCCAGCCUCCUCGCUCGCGCCGGCUGGGCAACAUUCCGAGGGGACCAUCCCCUCGGUAAUGGCGAAUGGGACCCA [G28C G59A],0.185
7,GGCCGGCAUGGUCCCAGCCUCCUCGCUGGCGCCGGCUGGGCAACAUUCCGAGGGGAUCGUCCCCUCGAUAAUGGCGAAUGGGACCCA [C57U G68A],1.02
8,GGCCGACAUGGUCCCAGCCUCCUCCCUGGCGCCGGCUGGGCAACAUUCCGAGGGGACCGUCCCCUCGGUAAUGGCGAAUGGGACCCA [G6A G25C],0.0462
9,GGCCGGCGUGGUCCCAGCCUCCUCGCUGGCGCCGGCUGGGCAACAUUCCGAGGGUACCGUCCCCUCGGUAAUGGCGAAUGGGACCCA [A8G G55U],0.804
10,GGCCGGCAUGGUGCCAGCCUCCUCGCUGACGCCGGCUGGGCAACAUUCCGAGGGGACCGUCCCCUCGGUAAUGGCGAAUGGGACCCA [C13G G29A],0.0573
11,GGCCGGGAUGGUCCCAGCCUCCUCGCUGGCGCCGGCUGGGUAACAUUCCGAGGGGACCGUCCCCUCGGUAAUGGCGAAUGGGACCCA [C7G C41U],0.0615
12,GGCCGGCAUGGACCCAGCCUCCUCGCUGGCGCCGGCUGGGCAACAUUCCGAGGGGACCGUCCCCUCGGUAAUGGCGAAUGCGACCCA [U12A G81C],0.0723
13,GGCCGGCAUGGGCCCAGCCUCCUCGCUGGCGCCGGCUGGGCAACAUUCCGAGGGGACCGUCCCCUCGGUAAUGGCGGAUGGGACCCA [U12G A77G],0.443
14,GGCCGGCAUGGUCCCAGCCUCCUCGCUGGCGCCGGCUGGGCAACAUGCCGAGGGGACCGUCCCCUCGGUAAUGGCGAAGGGGACCCA [U47G U79G],0.415
15,GGCCGGCAUGGUCCCAGCCUCCUCGCUGGCGCCGGCUGGGCAACAUUCCGAGGGGACCGUCCCCUCGGUAAGGGUGAAUGGGACCCA [U72G C75U],0.0415
16,GGCCGGCAUGGUCCCAUCCUCCUCGCUGGCGCCGGCUGUGCAACAUUCCGAGGGGACCGUCCCCUCGGUAAUGGCGAAUGGGACCCA [G17U G39U],0.126
17,GGCCGGCAUGGUCCCAGCCUCCUCGCUGGCGCCGGCUGGGCAACAUGCCGAGGGGACCGUCCCCUCGGUAAUGCCGAAUGGGACCCA [U47G G74C],0.222
18,GGCCGGCAUGGUCCCAACCUCCUCGCUGGCGCCGGCUGGGCAACAUCCCGAGGGGACCGUCCCCUCGGUAAUGGCGAAUGGGACCCA [G17A U47C],0.587
19,GGCCGGCAUGGUCCUAGCCUUCUCGCUGGCGCCGGCUGGGCAACAUUCCGAGGGGACCGUCCCCUCGGUAAUGGCGAAUGGGACCCA [C15U C21U],0.17
20,GGCCGGCAUGGUCCCAGCCUCCUCGCUGGCGCUGGCUGGGCAACGUUCCGAGGGGACCGUCCCCUCGGUAAUGGCGAAUGGGACCCA [C33U A45G],0.886
